Experimental data taken from the supplement of paper PMC12458215.
± gives the uncertainty stated by the source.

Test system: HEK293T
Assay: plasma membrane surface immunostaining intensity (anti-HA, deep receptor scanning) (arbitrary fluorescence units); higher = higher plasma membrane expression

Row | Sequence | plasma membrane surface immunostaining intensity (GPCR class: A) | plasma membrane surface immunostaining intensity (GPCR class: A (Olfactory))
1 | MDSGPLWDANPTPRGTLSAPNATTPWLGRDEELAKVEIGVLATVLVLATGGNLAVLLTLGQLGRKRSRMHLFVLHLALTDLAVALFQVLPQLLWDITYRFQGPDLLCRAVKYLQVLSMFASTYMLLAMTLDRYLAVCHPLRSLQQPGQSTYLLIAAPWLLAAIFSLPQVFIFSLREVIQGSGVLDCWADFGFPWGPRAYLTWTTLAIFVLPVTMLTACYSLICHEICKNLKVKTQAWRVGGGGWRTWDRPSPSTLAATTRGLPSRVSSINTISRAKIRTVKMTFVIVLAYIACWAPFFSVQMWSVWDKNAPDEDSTNVAFTISMLLGNLNSCCNPWIYMGFNSHLLPRPLRHLACCGGPQPRMRRRLSDGSLSSRHTTLLTRSSCPATLSLSLSLTLSGRPRPEESPRDLELADGEGTAETIIF [AVPR1B] | 665 ± 110 | 
2 | MDSTIPVLGTELTPINGREETPCYKQTLSFTGLTCIVSLVALTGNAVVLWLLGCRMRRNAVSIYILNLVAADFLFLSGHIICSPLRLINIRHPISKILSPVMTFPYFIGLSMLSAISTERCLSILWPIWYHCRRPRYLSSVMCVLLWALSLLRSILEWMFCDFLFSGANSVWCETSDFITIAWLVFLCVVLCGSSLVLLVRILCGSRKMPLTRLYVTILLTVLVFLLCGLPFGIQWALFSRIHLDWKVLFCHVHLVSIFLSALNSSANPIIYFFVGSFRQRQNRQNLKLVLQRALQDTPEVDEGGGWLPQETLELSGSRLEQ [MRGPRX3] | 135 ± 14 | 
3 | MDTGNWSQVAEFIILGFPHLQGVQIYLFLLLLLIYLMTVLGNLLIFLVVCLDSRLHTPMYHFVSILSFSELGYTAATIPKMLANLLSEKKTISFSGCLLQIYFFHSLGATECYLLTAMAYDRYLAICRPLHYPTLMTPTLCAEIAIGCWLGGLAGPVVEISLISRLPFCGPNRIQHVFCDFPPVLSLACTDTSINVLVDFVINSCKILATFLLILCSYVQIICTVLRIPSAAGKRKAISTCASHFTVVLIFYGSILSMYVQLKKSYSLDYDQALAVVYSVLTPFLNPFIYSLRNKEIKEAVRRQLKRIGILA [OR6N1] |  | 347 ± 130
4 | MDTGPDQSYFSGNHWFVFSVYLLTFLVGLPLNLLALVVFVGKLQRRPVAVDVLLLNLTASDLLLLLFLPFRMVEAANGMHWPLPFILCPLSGFIFFTTIYLTALFLAAVSIERFLSVAHPLWYKTRPRLGQAGLVSVACWLLASAHCSVVYVIEFSGDISHSQGTNGTCYLEFRKDQLAILLPVRLEMAVVLFVVPLIITSYCYSRLVWILGRGGSHRRQRRVAGLLAATLLNFLVCFGPYNVSHVVGYICGESPAWRIYVTLLSTLNSCVDPFVYYFSSSGFQADFHELLRRLCGLWGQWQQESSMELKEQKGGEEQRADRPAERKTSEHSQGCGTGGQVACAES [FFAR3] | 6440 ± 110 | 
5 | MDTGPDQSYFSGNHWFVFSVYLLTFLVGLPLNLLALVVFVGKLRCRPVAVDVLLLNLTASDLLLLLFLPFRMVEAANGMHWPLPFILCPLSGFIFFTTIYLTALFLAAVSIERFLSVAHPLWYKTRPRLGQAGLVSVACWLLASAHCSVVYVIEFSGDISHSQGTNGTCYLEFRKDQLAILLPVRLEMAVVLFVVPLIITSYCYSRLVWILGRGGSHRRQRRVAGLVAATLLNFLVCFGPYNVSHVVGYICGESPVWRIYVTLLSTLNSCVDPFVYYFSSSGFQADFHELLRRLCGLWGQWQQESSMELKEQKGGEEQRADRPAERKTSEHSQGCGTGGQVACAEN [GPR42] | 798 ± 40 | 
6 | MDTSRLGVLLSLPVLLQLATGGSSPRSGVLLRGCPTHCHCEPDGRMLLRVDCSDLGLSELPSNLSVFTSYLDLSMNNISQLLPNPLPSLRFLEELRLAGNALTYIPKGAFTGLYSLKVLMLQNNQLRHVPTEALQNLRSLQSLRLDANHISYVPPSCFSGLHSLRHLWLDDNALTEIPVQAFRSLSALQAMTLALNKIHHIPDYAFGNLSSLVVLHLHNNRIHSLGKKCFDGLHSLETLDLNYNNLDEFPTAIRTLSNLKELGFHSNNIRSIPEKAFVGNPSLITIHFYDNPIQFVGRSAFQHLPELRTLTLNGASQITEFPDLTGTANLESLTLTGAQISSLPQTVCNQLPNLQVLDLSYNLLEDLPSFSVCQKLQKIDLRHNEIYEIKVDTFQQLLSLRSLNLAWNKIAIIHPNAFSTLPSLIKLDLSSNLLSSFPITGLHGLTHLKLTGNHALQSLISSENFPELKVIEMPYAYQCCAFGVCENAYKISNQWNKGDNSSMDDLHKKDAGMFQAQDERDLEDFLLDFEEDLKALHSVQCSPSPGPFKPCEHLLDGWLIRIGVWTIAVLALTCNALVTSTVFRSPLYISPIKLLIGVIAAVNMLTGVSSAVLAGVDAFTFGSFARHGAWWENGVGCHVIGFLSIFASESSVFLLTLAALERGFSVKYSAKFETKAPFSSLKVIILLCALLALTMAAVPLLGGSKYGASPLCLPLPFGEPSTMGYMVALILLNSLCFLMMTIAYTKLYCNLDKGDLENIWDCSMVKHIALLLFTNCILNCPVAFLSFSSLINLTFISPEVIKFILLVVVPLPACLNPLLYILFNPHFKEDLVSLRKQTYVWTRSKHPSLMSINSDDVEKQSCDSTQALVTFTSSSITYDLPPSSVPSPAYPVTESCHLSSVAFVPCL [LGR5] | 283 ± 25 | 
7 | MDVLSPGQGNNTTSPPAPFETGGNTTGISDVTVSYQVITSLLLGTLIFCAVLGNACVVAAIALERSLQNVANYLIGSLAVTDLMVSVLVLPMAALYQVLNKWTLGQVTCDLFIALDVLCCTSSILHLCAIALDRYWAITDPIDYVNKRTPRRAAALISLTWLIGFLISIPPMLGWRTPEDRSDPDACTISKDHGYTIYSTFGAFYIPLLLMLVLYGRIFRAARFRIRKTVKKVEKTGADTRHGASPAPQPKKSVNGESGSRNWRLGVESKAGGALCANGAVRQGDDGAALEVIEVHRVGNSKEHLPLPSEAGPTPCAPASFERKNERNAEAKRKMALARERKTVKTLGIIMGTFILCWLPFFIVALVLPFCESSCHMPTLLGAIINWLGYSNSLLNPVIYAYFNKDFQNAFKKIIKCKFCRQ [HTR1A] | 5670 ± 440 | 
8 | MDVVDSLLVNGSNITPPCELGLENETLFCLDQPRPSKEWQPAVQILLYSLIFLLSVLGNTLVITVLIRNKRMRTVTNIFLLSLAVSDLMLCLFCMPFNLIPNLLKDFIFGSAVCKTTTYFMGTSVSVSTFNLVAISLERYGAICKPLQSRVWQTKSHALKVIAATWCLSFTIMTPYPIYSNLVPFTKNNNQTANMCRFLLPNDVMQQSWHTFLLLILFLIPGIVMMVAYGLISLELYQGIKFEASQKKSAKERKPSTTSSGKYEDSDGCYLQKTRPPRKLELRQLSTGSSSRANRIRSNSSAANLMAKKRVIRMLIVIVVLFFLCWMPIFSANAWRAYDTASAERRLSGTPISFILLLSYTSSCVNPIIYCFMNKRFRLGFMATFPCCPNPGPPGARGEVGEEEEGGTTGASLSRFSYSHMSASVPPQ [CCKAR] | 6447 ± 43 | 
9 | MEAANESSEGISFVLLGLTTSPGQQRPLFVLFLLLYVASLLGNGLIVAAIQASPALHAPMYFLLAHLSFADLCFASVTVPKMLANLLAHDHSISLAGCLTQMYFFFALGVTDSCLLAAMAYDCYVAIRHPLPYATRMSRAMCAALVGMAWLVSHVHSLLYILLMARLSFCASHQVPHFFCDHQPLLRLSCSDTHHIQLLIFTEGAAVVVTPFLLILASYGAIAAAVLQLPSASGRLRAVSTCGSHLAVVSLFYGTVIAVYFQATSRREAEWGRVATVMYTVVTPMLNPIIYSLWNRDVQGALRALLIGRRISASDS [OR1K1] |  | 223 ± 69
10 | MEAENLTELSKFLLLGLSDDPELQPVLFGLFLSMYLVTVLGNLLIILAVSSDSHLHTPMYFFLSNLSFVDICFISTTVPKMLVSIQARSKDISYMGCLTQVYFLMMFAGMDTFLLAVMAYDRFVAICHPLHYTVIMNPCLCGLLVLASWFIIFWFSLVHILLMKRLTFSTGTEIPHFFCEPAQVLKVACSNTLLNNIVLYVATALLGVFPVAGILFSYSQIVSSLMGMSSTKGKYKAFSTCGSHLCVVSLFYGTGLGVYLSSAVTHSSQSSSTASVMYAMVTPMLNPFIYSLRNKDVKGALERLLSRADSCP [OR7D4] |  | 157 ± 48
11 | MEAGNQTGFLEFILLGLSEDPELQPFIFGLFLSMYLVTVLGNLLIILAISSDSHLHTPMYFFLSNLSWVDICFSTCIVPKMLVNIQTENKAISYMDCLTQVYFSMFFPILDTLLLTVMAYDRFVAVCHPLHYMIIMNPHLCGLLVFVTWLIGVMTSLLHISLMMHLIFCKDFEIPHFFCELTYILQLACSDTFLNSTLIYFMTGVLGVFPLLGIIFSYSRIASSIRKMSSSGGKQKALSTCGSHLSVVSLFYGTGIGVHFTSAVTHSSQKISVASVMYTVVTPMLNPFIYSLRNKDVKGALGSLLSRAASCL [OR7D2] |  | 118 ± 23
12 | MEARNQTAISKFLLLGLIEDPELQPVLFSLFLSMYLVTILGNLLILLAVISDSHLHTPMYFFLSNLSFLDICLSTTTIPKMLVNIQAQNRSITYSGCLTQICFVLFFAGLENCLLAAMAYDRYVAICHPLRYTVIMNPRLCGLLILLSLLTSVVNALLLSLMVLRLSFCTDLEIPLFFCELAQVIQLTCSDTLINNILIYFAACIFGGVPLSGIILSYTQITSCVLRMPSASGKHKAVSTCGSHLSIVLLFYGAGLGVYISSVVTDSPRKTAVASVMYSVFPQMVNPFIYSLRNKDMKGTLRKFIGRIPSLLWCAICFGFRFLE [OR7G2] |  | 165 ± 53
13 | MEDFNMESDSFEDFWKGEDLSNYSYSSTLPPFLLDAAPCEPESLEINKYFVVIIYALVFLLSLLGNSLVMLVILYSRVGRSVTDVYLLNLALADLLFALTLPIWAASKVNGWIFGTFLCKVVSLLKEVNFYSGILLLACISVDRYLAIVHATRTLTQKRYLVKFICLSIWGLSLLLALPVLLFRRTVYSSNVSPACYEDMGNNTANWRMLLRILPQSFGFIVPLLIMLFCYGFTLRTLFKAHMGQKHRAMRVIFAVVLIFLLCWLPYNLVLLADTLMRTQVIQETCERRNHIDRALDATEILGILHSCLNPLIYAFIGQKFRHGLLKILAIHGLISKDSLPKDSRPSFVGSSSGHTSTTL [CXCR2] | 266 ± 3.4 | 
14 | MEDLEETLFEEFENYSYDLDYYSLESDLEEKVQLGVVHWVSLVLYCLAFVLGIPGNAIVIWFTGFKWKKTVTTLWFLNLAIADFIFLLFLPLYISYVAMNFHWPFGIWLCKANSFTAQLNMFASVFFLTVISLDHYIHLIHPVLSHRHRTLKNSLIVIIFIWLLASLIGGPALYFRDTVEFNNHTLCYNNFQKHDPDLTLIRHHVLTWVKFIIGYLFPLLTMSICYLCLIFKVKKRSILISSRHFWTILVVVVAFVVCWTPYHLFSIWELTIHHNSYSHHVMQAGIPLSTGLAFLNSCLNPILYVLISKKFQARFRSSVAEILKYTLWEVSCSGTVSEQLRNSETKNLCLLETAQ [CMKLR2] | 510 ± 52 | 
15 | MEEAILLNQTSLVTYFRLRGLSVNHKARIAMFSMFLIFYVLTLIGNVLIVITIIYDHRLHTPMYFFLSNLSFIDVCHSTVTVPKMLRDVWSEEKLISFDACVTQMFFLHLFACTEIFLLTVMAYDRYVAICKPLQYMIVMNWKVCVLLAVALWTGGTIHSIALTSLTIKLPYCGPDEIDNFFCDVPQVIKLACIDTHVIEILIVSNSGLISVVCFVVLVVSYAVILVSLRQQISKGKRKALSTCAAHLTVVTLFLGHCIFIYSRPSTSLPEDKVVSVFFTAVTPLLNPIIYTLRNEEMKSALNKLVGRKERKEEK [OR4E1] |  | 264 ± 95
16 | MEEENATLLTEFVLTGFLYQPQWKIPLFLAFLVIYLITIMGNLGLIAVIWKDPHLHIPMYLLLGNLAFVDALLSSSVTLKMLINFLAKSKMISLSECKIQLFSFAISVTTECFLLATMAYDRYVAICKPLLYPAIMTNGLCIRLLILSYVGGLLHALIHEGFLFRLTFCNSNIIQHFYCDIIPLLKISYTDSSINFLMVFIFAGSIQVFTIGTVLISYIFVLYTILKKKSVKGMRKAFSTCGAHLLSVSLYYGPLAFMYMGSASPQADDQDMMESLFYTVIVPLLNPMIYSLRNKQVIASFTKMFKRNDV [OR5H14] |  | 116 ± 19
